Here are results for 2 molecules from PMC6477676, “Staufen2-mediated RNA recognition and localization requires combinatorial action of multiple domains”.

One series concerns the target T1, mStau2 dsRBD1-2 E99A (Mus musculus, UniProt Q8CJ67 8-181, E99A).
T1 sequence: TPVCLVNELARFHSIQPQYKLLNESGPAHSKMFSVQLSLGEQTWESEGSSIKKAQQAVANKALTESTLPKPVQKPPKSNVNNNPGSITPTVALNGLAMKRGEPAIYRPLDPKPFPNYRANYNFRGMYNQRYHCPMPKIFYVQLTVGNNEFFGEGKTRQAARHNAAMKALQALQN
The experiment in a line: SPR; Hill n 1.5; SPR: HBS-EP (10 mM HEPES pH 7.4, 150 mM NaCl, 3 mM EDTA, 0.005% P20); EMSA: 5 nM RNA, protein buffer (40 mM Bis-Tris pH 7, 150 mM NaCl, 2 mM DTT presumed), 4% glycerol, 30 ug/mL yeast tRNA, RT; NMR: 150 mM NaCl, 20 mM Na phosphate pH 7.0, 5 mM DTT, 298 K. The conditions noted are these: protein: recombinant; label: 5' 32P (EMSA); biotin (SPR); hairpin, 18 bp stem.

In series [1] the target is T2, mStau2 dsRBD1-4 F40A H169A (Mus musculus, UniProt Q8CJ67 8-375, F40A;H169A).
T2 sequence: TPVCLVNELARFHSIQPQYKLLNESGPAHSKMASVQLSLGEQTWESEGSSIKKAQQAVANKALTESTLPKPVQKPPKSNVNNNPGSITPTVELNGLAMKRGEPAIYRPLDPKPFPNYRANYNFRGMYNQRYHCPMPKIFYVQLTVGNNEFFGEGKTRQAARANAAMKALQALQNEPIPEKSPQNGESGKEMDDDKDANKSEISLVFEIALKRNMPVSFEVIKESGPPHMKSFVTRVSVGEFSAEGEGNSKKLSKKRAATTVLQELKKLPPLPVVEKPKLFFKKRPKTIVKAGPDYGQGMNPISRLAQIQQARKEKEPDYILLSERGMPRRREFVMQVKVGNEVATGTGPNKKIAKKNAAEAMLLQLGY
The experiment in a line: SPR; two-site, transient; KDs resemble dsRBD3-4; SPR: HBS-EP (10 mM HEPES pH 7.4, 150 mM NaCl, 3 mM EDTA, 0.005% P20); EMSA: 5 nM RNA, protein buffer (40 mM Bis-Tris pH 7, 150 mM NaCl, 2 mM DTT presumed), 4% glycerol, 30 ug/mL yeast tRNA, RT; NMR: 150 mM NaCl, 20 mM Na phosphate pH 7.0, 5 mM DTT, 298 K. The conditions noted are these: protein: recombinant, label: 5' 32P (EMSA), biotin (SPR).

Series [2] has as its target T3, mStau2 dsRBD1-2 F40A F157A (Mus musculus, UniProt Q8CJ67 8-181, F40A;F157A).
T3 sequence: T1 sequence with F33A, A92E, F150A
As to the kind of experiment: SPR; no fit; SPR: HBS-EP (10 mM HEPES pH 7.4, 150 mM NaCl, 3 mM EDTA, 0.005% P20); EMSA: 5 nM RNA, protein buffer (40 mM Bis-Tris pH 7, 150 mM NaCl, 2 mM DTT presumed), 4% glycerol, 30 ug/mL yeast tRNA, RT; NMR: 150 mM NaCl, 20 mM Na phosphate pH 7.0, 5 mM DTT, 298 K. The conditions noted are these: protein: recombinant, label: 5' 32P (EMSA), biotin (SPR).

Series [3] deals with T4, mStau2 dsRBD1-2 F40A H169A (Mus musculus, UniProt Q8CJ67 8-181, F40A;H169A).
T4 sequence: T1 sequence with F33A, A92E, H162A
Described as above. The conditions noted are these: protein: recombinant, label: 5' 32P (EMSA), biotin (SPR).

The next series concerns the target T5, mStau2 full-length (Mus musculus, UniProt Q8CJ67 1-570).
T5 sequence: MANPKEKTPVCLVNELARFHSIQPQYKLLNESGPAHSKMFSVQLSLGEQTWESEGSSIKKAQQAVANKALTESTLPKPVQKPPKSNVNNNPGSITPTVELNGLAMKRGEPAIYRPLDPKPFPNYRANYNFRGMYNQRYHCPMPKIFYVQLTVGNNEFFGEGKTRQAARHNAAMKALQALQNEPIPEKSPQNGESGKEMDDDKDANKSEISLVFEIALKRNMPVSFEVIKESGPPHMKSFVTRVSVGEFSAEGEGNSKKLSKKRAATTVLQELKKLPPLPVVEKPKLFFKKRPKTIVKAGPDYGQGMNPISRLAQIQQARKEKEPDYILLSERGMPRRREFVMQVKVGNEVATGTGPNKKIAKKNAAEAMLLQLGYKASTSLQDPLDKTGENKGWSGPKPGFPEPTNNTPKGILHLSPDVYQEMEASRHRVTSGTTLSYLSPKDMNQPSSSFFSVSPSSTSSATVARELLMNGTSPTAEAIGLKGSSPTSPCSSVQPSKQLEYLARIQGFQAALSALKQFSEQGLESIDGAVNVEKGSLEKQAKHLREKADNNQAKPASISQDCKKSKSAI
The experiment in a line: EMSA; stated as 100 nM range; SPR: HBS-EP (10 mM HEPES pH 7.4, 150 mM NaCl, 3 mM EDTA, 0.005% P20); EMSA: 5 nM RNA, protein buffer (40 mM Bis-Tris pH 7, 150 mM NaCl, 2 mM DTT presumed), 4% glycerol, 30 ug/mL yeast tRNA, RT; NMR: 150 mM NaCl, 20 mM Na phosphate pH 7.0, 5 mM DTT, 298 K. The conditions noted are these: protein: recombinant; tags: HisSUMO; label: 5' 32P (EMSA); biotin (SPR); imperfect hairpin, 26 bp with two bulges. Background: In EMSA bound probe runs differently from free probe, usually more slowly.

[4] abbreviates: imperfect hairpin, 26 bp with two bulges.

Substitutions are numbered along the chain they refer to.

On to GGUAUAUACAUGCACAUGCAAUUUGUGUAUGUGUAUGUAUAUA (structured_RNA) [SRS2+5], for which the Kd in the series with mStau2 dsRBD1-2 E99A was 635 ± 308 nM. The binding result in series [1] (hairpin, 18 bp stem) is “binds”; in series [2] (hairpin, 18 bp stem), “no binding”; in series [3] (hairpin, 18 bp stem) it was “no binding”.

B1: SRS* (SRS3) (structured_RNA)
RNA: GGUAUGUGUGAAUGUGCAUGAAUAUAUAUAUAUAUGCAUAUAUAUAUUUGUAUAUGUUCACACAUG
With B1, the results for the binding result in series [1] (setting [4]), in series [2] (setting [4]) and in series [3] (setting [4]) were “binds”, “no binding” and “no binding”, respectively. Also, the Kd with mStau2 full-length is about 100 nM.

A word on the Kd: it is the free concentration of one partner at which half of the binding sites on the other are occupied at equilibrium, for simple one-to-one binding.
